Measurements reported in patent publication US20240270866A1 (Alector, published 2024).
Changes are numbered by the printed parent chain.

T1: mouse SIRPA overexpressed on CHO cells (mouse, UniProt P97797 32-513)
T1 construct: also called CHO-muSIRPA
T1 sequence: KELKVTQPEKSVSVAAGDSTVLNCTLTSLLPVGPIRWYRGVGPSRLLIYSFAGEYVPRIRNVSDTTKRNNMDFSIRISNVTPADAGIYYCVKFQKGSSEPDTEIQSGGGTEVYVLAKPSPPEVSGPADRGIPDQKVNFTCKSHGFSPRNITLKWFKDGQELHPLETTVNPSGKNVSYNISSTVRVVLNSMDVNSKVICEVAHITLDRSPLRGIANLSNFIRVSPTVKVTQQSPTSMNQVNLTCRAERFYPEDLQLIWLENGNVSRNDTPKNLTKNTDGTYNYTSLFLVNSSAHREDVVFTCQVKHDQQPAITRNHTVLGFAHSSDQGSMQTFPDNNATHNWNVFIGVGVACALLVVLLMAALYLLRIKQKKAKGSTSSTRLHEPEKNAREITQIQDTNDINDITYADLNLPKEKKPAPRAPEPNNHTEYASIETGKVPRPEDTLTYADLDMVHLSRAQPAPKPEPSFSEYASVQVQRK

T2: Mouse SIRPA D1 Fc (mouse, UniProt P97797 32-150, limits assumed)
T2 sequence: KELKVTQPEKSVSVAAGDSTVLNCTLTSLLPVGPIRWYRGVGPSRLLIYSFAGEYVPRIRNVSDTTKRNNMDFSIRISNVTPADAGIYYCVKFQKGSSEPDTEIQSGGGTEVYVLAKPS

B1: SA-15 (antibody, V domains shown)
VH: QVQLVQSGAEVKKPGSSVKVSCKASGGTFSSYAISWVRQAPGQGLEWMGGIIPIFGTANYAQKFQGRVTITADESTSTAYMELSSLRSEDTAVYYCARDGSYSYATYWGQGTLVTVSS
VL: EIVLTQSPATLSLSPGERATLSCRASQSVSSYLAWYQQKPGQAPRLLIYDASNRATGIPARFSGSGSGTDFTLTISSLEPEDFAVYYCQQPYNFPLTFGGGTKVEIK
notes: IgG
B2: SA-24 (antibody, V domains shown)
VH: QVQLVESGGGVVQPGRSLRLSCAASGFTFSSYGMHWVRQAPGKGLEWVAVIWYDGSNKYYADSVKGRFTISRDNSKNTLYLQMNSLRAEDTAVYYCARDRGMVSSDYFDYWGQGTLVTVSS
VL: B1 VL with P91R, Y92L, N93D, F94W, L96Y
notes: IgG
B3: SA-17 (antibody, V domains shown)
VH: QVQLVQSGAEVKKPGSSVKVSCKASGGTFSSYAISWVRQAPGQGLEWMGGIIPIFGTASYAQKFQGRVTITADESTSTAYMELSSLRSEDTAVYYCARDLSAFYVGPFDYWGQGTLVTVSS
VL: EIVMTQSPATLSVSPGERATLSCRASQSVSSSLAWYQQKPGQAPRLLIYGASTRATGIPARFSGSGSGTEFTLTISSLQSEDFAVYYCQQDYIWPLTFGGGTKVEIK
notes: IgG
B4: SA-30 (antibody, V domains shown)
VH: QVQLVESGGGVVQPGRSLRLSCAASGFTFSSYGMHWVRQAPGKGLEWVAVIWYDGSNKYYADSVKGRFTISRDNSKNTLYLQMNSLRAEDTAVYYCARDTGSATTMWLYGMDVWGKGTTVTVSS
VL: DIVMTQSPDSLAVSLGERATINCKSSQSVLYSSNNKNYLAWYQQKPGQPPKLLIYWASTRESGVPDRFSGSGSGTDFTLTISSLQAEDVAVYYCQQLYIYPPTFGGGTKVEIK
notes: IgG
B5: SA-10 (antibody, V domains shown)
VH: EVQLVESGGGLVQPGRSLRLSCAASGFTFDDYAMHWVRQAPGKGLEWVSGITWNSGSIGYADSVKGRFTISRDNAKNSLYLQMNSLRAEDTALYYCAKGKQYSANYFDYWGQGTLVTVSS
VL: DIQMTQSPSTLSASVGDRVTITCRASQSISSWLAWYQQKPGKAPKLLIYEASSLESGVPSRFSGSGSGTEFTLTISSLQPDDFATYYCQQDNSLPYTFGGGTKVEIK
notes: IgG
B6: SA-55 (antibody, V domains shown)
VH: EVQLVESGGGLVQPGGSLRLSCAASGFTFSSYWMSWVRQAPGKGLEWVANIKQDGSEKYYVDSVKGRFTISRDNAKNSLYLQMNSLRAEDTAVYYCARGSPYYDAYDFDLWGRGTLVTVSS
VL: B5 VL with M4L, S28A, E50D, D91Y, N92E, L94F, Y96W
notes: IgG
B7: SA-51 (antibody, V domains shown)
VH: QVQLVQSGAEVKKPGSSVKVSCKASGGTFSSYAISWVRQAPGQGLEWMGSIIPIFGTANYAQKFQGRVTITADESTSTAYMELSSLRSEDTAVYYCARGGYAAGTDYYMGVWGKGTTVTVSS
VL: not shown
notes: IgG
B8: SA-11 (antibody, V domains shown)
VH: EVQLVESGGGLVQPGRSLRISCAASGFTFGDYAMHWVRQAPGKGLEWVSGISWNSGSIGYADSVKGRFTISRDNAKNSLYLQMNSLRAEDTALYYCAKTRYGYYSYDFDLWGRGTLVTVSS
VL: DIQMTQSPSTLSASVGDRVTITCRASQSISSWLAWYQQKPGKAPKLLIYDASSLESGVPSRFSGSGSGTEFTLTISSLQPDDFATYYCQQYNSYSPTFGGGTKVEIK
notes: IgG
B9: SA-8 (antibody, V domains shown)
VH: QVQLVESGGGVVQPGRSLRLSCAASGFTFSSYGMHWVRQAPGKGLEWVAVISYDGSNKYYADSVKGRFTISRDNSKNTLYLQMNSLRAEDTAVYYCAKEPRSYWHGYGMDVWGQGTTVTVSS
VL: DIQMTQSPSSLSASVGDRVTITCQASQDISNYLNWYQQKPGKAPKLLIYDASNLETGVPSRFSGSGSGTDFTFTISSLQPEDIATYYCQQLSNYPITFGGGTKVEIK
notes: IgG; also called SA-8 (parental)
B10: SA-20 (antibody, V domains shown)
VH: B9 VH
VL: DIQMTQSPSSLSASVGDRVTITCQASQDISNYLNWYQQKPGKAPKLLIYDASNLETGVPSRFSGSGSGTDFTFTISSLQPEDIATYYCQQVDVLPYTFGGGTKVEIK
notes: IgG
B11: SA-46 (antibody, V domains shown)
VH: EVQLLESGGGLVQPGGSLRLSCAASGFTFSTYAMSWVRQAPGKGLEWVSAISGSGGSTYYADSVKGRFTISRDNSKNTLYLQMNSLRAEDTAVYYCARESYDSSLHYYGMDVWGQGTTVTVSS
VL: EIVLTQSPGTLSLSPGERATLSCRASQSVSSSYLAWYQQKPGQAPRLLIYGASSRATGIPDRFSGSGSGTDFTLTISRLEPEDFAVYYCQQHFSLPPTFGGGTKVEIK
notes: IgG
B12: SA-9 (antibody, V domains shown)
VH: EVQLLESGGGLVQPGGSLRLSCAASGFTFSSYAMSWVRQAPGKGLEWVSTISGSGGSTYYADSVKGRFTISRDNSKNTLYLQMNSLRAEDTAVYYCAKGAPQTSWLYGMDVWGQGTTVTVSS
VL: DIQMTQSPSSVSASVGDRVTITCRASQGISSWLAWYQQKPGKAPKLLIYAASSLQSGVPSRFSGSGSGTDFTLTISSLQPEDFATYYCQQAYLYPITFGGGTKVENQ
notes: IgG
B13: SA-54 (antibody, V domains shown)
VH: QLQLQESGPGLVKPSETLSLTCTVSGGSISSSSYYWGWIRQPPGKGLEWIGSIYYSGSTYYNPSLKSRVTISVDTSKNQFSLKLSSVTAADTAVYYCARGSGIAAADTDGLPMDVWGQGTTVTVSS
VL: B12 VL with A91V, Y94F, N106I, Q107K
notes: IgG
B14: SA-33 (antibody, V domains shown)
VH: QVQLVQSGAEVKKPGSSVKVSCKASGGTFSSYAISWVRQAPGQGLEWMGGIIPIFGTASYAQKFQGRVTITADESTSTAYMELSSLRSEDTAVYYCARDVGMARGDPYGMDVWGQGTTVTVSS
VL: B12 VL with Y49S, Q89L, L93S, Y94F, I96F, N106I, Q107K
notes: IgG
B15: SA-18 (antibody, V domains shown)
VH: EVQLVESGGGLVQPGGSLRLSCAASGFTFSSYWMSWVRQAPGKGLEWVANIKSDGSEKYYVDSVKGRFTISRDNAKNSLYLQMNSLRAEDTAVYYCARDLSYEPSYPFDIWGQGTMVTVSS
VL: B12 VL with Y92L, L93S, Y94F, I96F, N106I, Q107K
notes: IgG
B16: SA-5 (antibody, V domains shown)
VH: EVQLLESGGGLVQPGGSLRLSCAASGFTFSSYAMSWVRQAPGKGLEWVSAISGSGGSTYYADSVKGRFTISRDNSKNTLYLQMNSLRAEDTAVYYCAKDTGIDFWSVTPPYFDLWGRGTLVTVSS
VL: B12 VL with M4L, G28D, A91G, L93I, Y94F, I96R, N106I, Q107K
notes: IgG; also called SA-5 (parental)
B17: SA-49 (antibody, V domains shown)
VH: EVQLVESGGGLVKPGGSLRLSCAASGFTFSSYSMNWVRQAPGKGLEWVSSISSSSSYIYYADSVKGRFTISRDNAKNSLYLQMNSLRAEDTAVYYCARGAPSMQYSPYYYYGMDVWGQGTTVTVSS
VL: B12 VL with A91V, Y92S, I96P, N106I, Q107K
notes: IgG

Target: T1, mouse SIRPA overexpressed on CHO cells
Test: flow, CHO-muSIRPA;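 as to relative MFI: antibody binding measured by flow cytometry: cells stained with 1 ug/ml test antibody for 1 h on ice, detected with PE-labelled secondary antibody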

binding result | Binder
no binding (tested: 1 ug/ml) | B1
no binding (tested: 1 ug/ml) | B2
no binding (tested: 1 ug/ml) | B3
no binding (tested: 1 ug/ml) | B4
no binding (tested: 1 ug/ml) | B5
no binding (tested: 1 ug/ml) | B6
no binding (tested: 1 ug/ml) | B7
no binding (tested: 1 ug/ml) | B8
no binding (tested: 1 ug/ml) | B9
no binding (tested: 1 ug/ml) | B10
no binding (tested: 1 ug/ml) | B11
no binding (tested: 1 ug/ml) | B12
no binding (tested: 1 ug/ml) | B13
no binding (tested: 1 ug/ml) | B14
no binding (tested: 1 ug/ml) | B15
no binding (tested: 1 ug/ml) | B16
no binding (tested: 1 ug/ml) | B17

Target: T1, mouse SIRPA overexpressed on CHO cells
Test: flow, CHO-muSIRPA;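 as to relative MFI: antibody binding measured by flow cytometry: cells stained with 1 ug/ml test antibody for 1 h on ice, detected with PE-labelled secondary antibody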
Remark: another data set of the same source
Method: (§1) Initial characterization of anti-SIRPA antibodies of the present disclosure involved determining their ability to bind cell lines overexpressing human or mouse SIRPA. Cells were harvested, plated at 10⁶/ml in a 96 well plate, washed, and incubated in 100 ul PBS containing 1 ug/ml Mab for 1 hour in ice. Cells were then washed twice and incubated in 100 ul PBS containing 5 ug/ml PE-conjugated secondary antibody for 30 minutes in ice. Cells were washed twice in cold PBS and acquired on a BD FACS Canto. Data analysis and calculation of mean fluorescence intensity (MFI) values or % positive cells was performed with FlowJo® (TreeStar) software version 10.0.7.

relative MFI [fold over background] | Binder
0.512 | B1
0.542 | B2
0.476 | B3
0.595 | B4
0.583 | B5
0.464 | B6
0.851 | B8
0.5 | B9
0.786 | B10
0.476 | B11
0.646 | B12
0.461 | B13
0.708 | B14
0.56 | B15
0.533 | B16
0.53 | B17

Target: T3, human SIRPA overexpressed on CHO cells (human, UniProt P78324 31-504)
T3 construct: also called CHO-huSIRPA
Test: flow, CHO-huSIRPA;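 also: Anti-SIRPA antibodies applied at 1 µg/mL for 1 h on ice, binding read by flow cytometry using a PE-labelled secondary antibody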
Method: as §1

relative MFI [fold over background] | Binder
0.768 | B1
0.989 | B3
41.2 | B4
4.62 | B5
0.972 | B8
57.8 | B9
5.19 | B10
2.13 | B15

Target: Human SIRPb D1 Fc (human, UniProt O00241 30-148, limits assumed)
Sequence (O00241 30-148 limits assumed): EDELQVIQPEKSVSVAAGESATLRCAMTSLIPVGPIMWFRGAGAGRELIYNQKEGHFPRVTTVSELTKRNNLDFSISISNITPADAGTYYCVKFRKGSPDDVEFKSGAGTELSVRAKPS
Test: ForteBio IgG avid;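 also: antibody IgG captured on AHQ biosensors, then 100 nM Fc-fused SIRP antigen applied for 3 min, followed by 3 min buffer dissociation, kinetics fitted to a 1:1 model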
Method: (§2) Briefly, ForteBio affinity measurements were performed by loading IgGs on-line onto AHQ sensors. Sensors were equilibrated off-line in assay buffer for 30 min and then monitored on-line for 60 seconds for baseline establishment. For avid binding measurement, sensors with loaded IgGs were exposed to 100 nM antigen (human SIRPA or SIRPβ1 Fc fusion) for 3 min, afterwards they were transferred to assay buffer for 3 min for off-rate measurement. Additional avid binding was determined by loading biotinylated SIRPA monomer on SA sensors and exposure to 100 nM IgG in solution. Monovalent binding measurements were obtained by loading human SIRPA or SIRPβ1 Fc fusion antigens to AHQ sensor and followed by exposure to 100 nM anti-SIRPA antibody Fab. Additional monovalent measurements were made by loading biotinylated human SIRPA or SIRPβ1 monomer to SA sensor followed by exposure to 100 nM Fab in solution. Kinetics data were fit using a 1:1 binding model in the data analysis software provided by ForteBio.

Kd [nM] | binding result | Binder
28.4 | – | B1
– | no binding (tested: 100 nM) | B3
– | no binding (tested: 100 nM) | B4
– | no binding (tested: 100 nM) | B5
– | no binding (tested: 100 nM) | B8
– | no binding (tested: 100 nM) | B10
– | no binding (tested: 100 nM) | B15

Target: T2, Mouse SIRPA D1 Fc
Test: ForteBio IgG avid;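 also: antibody IgG captured on AHQ biosensors, then 100 nM Fc-fused SIRP antigen applied for 3 min, followed by 3 min buffer dissociation, kinetics fitted to a 1:1 model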
Method: as §2

binding result | Binder
no binding (tested: 100 nM) | B1
no binding (tested: 100 nM) | B2
no binding (tested: 100 nM) | B3
no binding (tested: 100 nM) | B4
no binding (tested: 100 nM) | B5
no binding (tested: 100 nM) | B6
no binding (tested: 100 nM) | B7
no binding (tested: 100 nM) | B8
no binding (tested: 100 nM) | B9
no binding (tested: 100 nM) | B10
no binding (tested: 100 nM) | B11
no binding (tested: 100 nM) | B12
no binding (tested: 100 nM) | B13
no binding (tested: 100 nM) | B14
no binding (tested: 100 nM) | B15
no binding (tested: 100 nM) | B16
no binding (tested: 100 nM) | B17
